A word on the Kd: it is the free concentration of one partner at which half of the binding sites on the other are occupied at equilibrium, for simple one-to-one binding.

The source of these data is PMC7615710, “ASPP2 binds to hepatitis C virus NS5A protein via an SH3 domain/PxxP motif-mediated interaction and potentiates infection” (The Journal of general virology, 2023).

B1: Fyn SH3 domain (85-142) (domain or fragment)
chain: not shown
B2: Grb2 SH3 domain (1-58) (domain or fragment)
chain: MEAIAKYDFKATADDELSFKRGDILKVLNEECDQNWYKAELNGKDGFIPKNYIEMKPH
B3: HCV [4a.ED43] NS5A PRR peptide (peptide)
peptide: WLPPAKQPPVPSPRRKRTVQL
notes: source: synthetic peptide, custom made (TUCF)
B4: ASPP1 C-terminal domain (887-1090) (domain or fragment)
chain: NPLALLLDASLEGEFDLVQRIIYEVEDPSKPNDEGITPLHNAVCAGHHHIVKFLLDFGVNVNAADSDGWTPLHCAASCNSVHLCKQLVESGAAIFASTISDIETAADKCEEMEEGYIQCSQFLYGVQEKLGVMNKGVAYALWDYEAQNSDELSFHEGDALTILRRKDESETEWWWARLGDREGYVPKNLLGLYPRIKPRQRTLA
notes: also called ASPP1 CTD
B5: Lyn SH3 domain (65-122) (domain or fragment)
chain: GDIVVALYPYDGIHPDDLSFKKGEKMKVLEEHGEWWKAKSLLTKKEGFIPSNYVAKLN
B6: HCV [1b.Con1] NS5A PRR peptide (peptide)
peptide: WLPPAKAPPIPPPRRKRTVVL
notes: as for B3
B7: HCV [2a.JFH-1] NS5A PRR peptide (peptide)
peptide: WLPPPKKAPTPPPRRRRTVGL
notes: also called NS5A (2a); NS5A PRR peptide (JFH-1); source: synthetic peptide, custom made (TUCF)
B8: ASPP2 C-terminal domain (925-1128) (domain or fragment)
chain: NPLALLLDSSLEGEFDLVQRIIYEVDDPSLPNDEGITALHNAVCAGHTEIVKFLVQFGVNVNAADSDGWTPLHCAASCNNVQVCKFLVESGAAVFAMTYSDMQTAADKCEEMEEGYTQCSQFLYGVQEKMGIMNKGVIYALWDYEPQNDDELPMKEGDCMTIIHREDEDEIEWWWARLNDKEGYVPRNLLGLYPRIKPRQRSLA
notes: also called ASPP2 CTD
B9: LASP1 SH3 domain (205-261) (domain or fragment)
chain: KRYRAVYDYSAADEDEVSFQDGDTIVNVQQIDDGWMYGTVERTGDTGMLPANYVEAI

Test in all cases: ITC; 450 or 300 uM NS5A PRR peptide (syringe) titrated to 30 uM ASPP CTD or SH3 domain (cell), 12 °C, 25 mM HEPES pH 7.5, 150 mM NaCl, 500 uM TCEP; 25 steps of 10 ul; AB hetero association model (SEDPHAT)
Conditions in all cases: both partners purified
A general note: Isothermal titration calorimetry measures the heat released or taken up as one component is titrated into another.

For assay [1], the target named is T1, HCV [1a.1] NS5A PRR peptide (Hepatitis C virus genotype 1a (strain 1)).
T1 construct: source: synthetic peptide, custom made (TUCF)

Assay [2] has as its target B4.
Assay [3] concerns the target B8.

On to B1, for which, in assay [1], the Kd was 5.89 µM.
The same measure, in the same setting: then B2, with 7.96 µM.
For B3, the Kd turned out to be 42.8 µM in assay [2] and 0.741 µM in assay [3].
As to B4, the Kd in assay [1] was determined as 9.27 µM. That is a single-digit micromolar value.
Same read-out and setting: to B5 belongs 5.1 µM.
Consider B6, for which the Kd in assay [2] amounted to 6.7 µM; in assay [3] it was 0.0758 µM.
Regarding B7, the Kd was found to be 3.78 µM in assay [2] and 0.0424 µM in assay [3].
The molecule B8 displayed a Kd in assay [1] of 0.234 µM.
Take B9: binding in assay [1] was characterised by a dissociation constant (Kd) of 2.3 µM.
